Data taken from paper doi:10.1101/2025.05.27.656348.

Biological target: RELMβ bait: RELMβ fused to rat CD4d3+4, BirA recognition site and 6X-histidine tag (mouse) (UniProt Q99P86)
Experiment: SPR

Chain of UniProt Q99P86 (Q99P86 24-105): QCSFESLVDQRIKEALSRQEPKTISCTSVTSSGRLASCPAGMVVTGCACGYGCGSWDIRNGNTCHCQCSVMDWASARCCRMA

Kd: < 0.1 nM
Substance: HpBoRB, C-terminal 6X-His tagged, from the pSecTAG2A expression vector (natural protein)
